Six substances from publication PMC3102659 can be followed below.

For assay [1], the target named is human blood coagulation factor X (FX) (human).
Assay [2] has the same target. Description: SPR; biotinylated hypersulfated heparin (HS) on a streptavidin CM4 chip, BIAcore3000; hexon or virions injected alone or mixed with FX or FXGL; read-out is the FX-bridged binding to HS; HBS (10 mM HEPES, 150 mM NaCl, pH 7.4) with 3 mM CaCl2, 5 µl/min. (In general: Surface plasmon resonance follows binding to a sensor surface in real time, without labels.)

Assay [3] deals with immobilized HS (hypersulfated heparin), bridged by FX (m1). Description: SPR. The following applies: virion + FX at 8 µg/ml (FXmax); HS immobilized on chip; read at end of injection (~285 s); parent: est. 2900; read off a plot.
The target in assay [4] is human blood coagulation factor X (FX) (human). The source holds these as a separate data set.
Assay [5] deals with TTAT mutant fiber of HAdV5 (KKTK motif of the shaft mutated) (human adenovirus serotype 5) (UniProt P11818). Briefly: not stated; data not shown: folding of TTAT mutant fibers as trimers.

The substance “HAdV5F35 virion (serotype 35 fiber-pseudotyped HAdV5 vector) (from UniProt P04133 1-952; P12538 1-571) (complex)” had a cell-bound virions on CHO-K1 cells (qPCR of viral genomes), MOI 5,000, 1 h at 4°C, increase with FX 8 µg/ml over no FX in assay [1] of 10 fold. Besides, in assay [2], the copies of FX per virion at maximum FX-mediated binding to HS (copies of FX per virion) stood at 480.

In turn, “HAdV5wt virion (replication-deficient HAdV5 vector with nonmodified capsid) (from UniProt P04133 1-952; P12538 1-571; P11818 1-581) (complex)” displayed a cell-bound virions on CHO-K1 cells (qPCR of viral genomes), MOI 5,000, 1 h at 4°C, increase with FX 8 µg/ml over no FX in assay [1] of 5 to 6 fold.

“HAdV5wt virion (replication-deficient HAdV5 vector with nonmodified capsid) (from UniProt P04133;P12538;P11818) fiber:K91T; fiber:K92T; fiber:T93A; fiber:K94T”: the response in assay [3] was found to be 2400 RU.

As for “HAdV5F^TTAT virion (HAdV5 vector mutated in the KKTK motif of the fiber shaft) (from UniProt P04133 1-952; P12538 1-571; P11818 1-581) (complex)”, the enhancement of transduction efficiency of CHO-K1 cells, MOI 2,500, increasing doses of FX up to FXmax (8 µg/ml) in assay [4] was determined as 65 fold.

With “HAdV5wt virion (replication-deficient HAdV5 vector with nonmodified capsid) (from UniProt P04133;P12538;P11818) penton base:R340E”, the response in assay [3] turned out to be 2500 RU.

One may read the stoichiometry N as a count of units in the complex or per binding partner. In turn, “TTAT mutant fiber of HAdV5 (KKTK motif of the shaft mutated) (from UniProt P11818 1-581) (natural protein)” yielded a stoichiometry N in assay [5] of 3.
